Assay results: article PMC3677877 (PLoS ONE, 2013)

B1: recombinant RgpB propeptide (thrombin-cleaved) (domain or fragment)
chain: QPAERGRNPQVRLLSAEQSMSKVQFRMDNLQFTGVQTSKGVAQVPTFTEGVNISEKGTPILPILSRSLAVSETRAMKVEVVSSKFIEKKDVLIAPSKGVISRAENPDQIPYVYGQSYNEDKFFPGEIATLSDPFILRDVRGQVVNFAPLQYNPVTKTLRIYTEIVVAVSETAEAGQNTISLVKNSTFTGFEDIYKSVFMNYEATR
modifications: Text prints 25-222, but the reverse primer encodes FMNYEATR-stop (end at 229), and 209 aa = GSHM vector remnant + 205 residues (25-229). The GSHM remnant left after thrombin cleavage is omitted. …

Tests used:
[1] = target: rKgp: mature recombinant Kgp catalytic domain with the ABM1 motif (Gly681-Ala710) deleted (Porphyromonas gingivalis W50)
caspase 3 = caspase 3 (UniProt P42574)
caspase 3, sequence (P42574 whole entry): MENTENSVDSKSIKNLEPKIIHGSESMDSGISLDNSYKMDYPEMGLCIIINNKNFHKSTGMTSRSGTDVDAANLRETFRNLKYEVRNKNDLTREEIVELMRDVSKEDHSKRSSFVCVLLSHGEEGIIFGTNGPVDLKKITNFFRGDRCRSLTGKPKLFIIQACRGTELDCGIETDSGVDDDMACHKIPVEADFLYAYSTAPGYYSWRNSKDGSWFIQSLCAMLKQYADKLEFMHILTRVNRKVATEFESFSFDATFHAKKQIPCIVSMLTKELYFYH

papain = papain (UniProt P00784)
papain, sequence (P00784 134-345): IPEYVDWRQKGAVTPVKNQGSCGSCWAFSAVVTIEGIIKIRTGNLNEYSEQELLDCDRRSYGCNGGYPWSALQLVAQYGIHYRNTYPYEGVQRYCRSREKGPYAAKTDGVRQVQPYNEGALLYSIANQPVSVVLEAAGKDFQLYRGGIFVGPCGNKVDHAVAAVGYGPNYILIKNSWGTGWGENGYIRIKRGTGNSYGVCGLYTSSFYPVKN

[2] = target: T1, mature RgpB from P. gingivalis HG66 (Porphyromonas gingivalis HG66, UniProt P95493 230-736); assay: enzyme inhibition kinetics; conditions: both partners purified
T1 chain: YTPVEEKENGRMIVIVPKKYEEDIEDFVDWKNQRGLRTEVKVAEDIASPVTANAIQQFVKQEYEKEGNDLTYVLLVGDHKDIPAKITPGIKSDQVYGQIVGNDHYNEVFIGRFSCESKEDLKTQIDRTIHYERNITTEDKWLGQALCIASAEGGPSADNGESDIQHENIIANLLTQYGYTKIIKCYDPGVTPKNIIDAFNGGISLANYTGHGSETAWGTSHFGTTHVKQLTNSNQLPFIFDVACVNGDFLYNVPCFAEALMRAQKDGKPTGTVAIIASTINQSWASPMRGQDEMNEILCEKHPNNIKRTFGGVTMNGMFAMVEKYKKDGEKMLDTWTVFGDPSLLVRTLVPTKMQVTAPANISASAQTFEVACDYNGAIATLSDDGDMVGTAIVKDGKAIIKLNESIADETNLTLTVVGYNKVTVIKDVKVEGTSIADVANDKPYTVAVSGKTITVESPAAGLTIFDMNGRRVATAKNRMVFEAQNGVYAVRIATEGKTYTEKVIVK

Row | Molecule | % proteolytic activity of Kgp (0.0075 mg/mL) with RgpB-PP at 50 mg/L, substrate GPKNA (% proteolytic activity) [1] | % proteolytic activity of caspase 3 (60 Units) with RgpB-PP at 100 mg/L, substrate Ac-DEVD-pNa (200 µM) (% proteolytic activity) (caspase 3) | % proteolytic activity of papain (2.75 mg/L) with RgpB-PP at 100 mg/L, substrate BapNA (% proteolytic activity) (papain) | Ki [2] [nM]
1 | recombinant RgpB propeptide (thrombin-cleaved) (from UniProt P95493 25-222) (domain or fragment) | 118 | 133 | 103 | –
2 | B1 | – | – | – | 12
